Columns and labels:
Experiment in all cases: spectrophotometric hydrolysis assay, fit with product inhibition
Type in all cases: biochemical, Escherichia coli
Conditions in all cases: 50 mM potassium phosphate, pH 8.0, 22 °C
CC(=O)Nc1cc[nH]c(=O)n1 = test system: T1, CC(=O)Nc1cc[nH]c(=O)n1
T1 construct: full length (103 residues), C-terminal His6 kept, pET21b, expressed in E. coli BL21(DE3) yqfB::Km, monomer
Source text: (§1) spectrophotometric hydrolysis assay, fit with product inhibition on YqfB with a C-terminal His6 tag

[1] = test system: T2, CC(=O)Nc1ccn([C@@H]2O[C@H](CO)[C@@H](O)[C@H]2O)c(=O)n1
T2 construct: full length (103 residues), C-terminal His6 kept, pET21b, expressed in E. coli BL21(DE3) yqfB::Km, monomer
Source text: as §1

[2] = substrate: CC(=O)Nc1cc[nH]c(=O)n1
Source text: as §1

[3] = substrate: CC(=O)Nc1ccn([C@@H]2O[C@H](CO)[C@@H](O)[C@H]2O)c(=O)n1
Source text: as §1

[4] = substrate: CC(=O)Nc1ccn([C@H]2C[C@H](O)[C@@H](CO)O2)c(=O)n1
Source text: as §1

[5] = substrate: CC(=O)Nc1nc(O)ncc1F
Source text: as §1

[6] = substrate: CC(C)C(=O)Nc1ccn([C@H]2C[C@H](O)[C@@H](CO)O2)c(=O)n1
Source text: as §1

[7] = substrate: CCCCCC(=O)Nc1ccn([C@H]2C[C@H](O)[C@@H](CO)O2)c(=O)n1
Source text: as §1

[8] = substrate: CCCCCOC(=O)Nc1nc(=O)n([C@@H]2O[C@H](C)[C@@H](O)[C@H]2O)cc1F
Source text: as §1

[9] = substrate: O=C(Nc1ccn([C@@H]2O[C@H](CO)[C@@H](O)[C@H]2O)c(=O)n1)c1ccccc1
Source text: as §1

[10] = substrate: O=C(Nc1ccn([C@H]2C[C@H](O)[C@@H](CO)O2)c(=O)n1)c1ccccc1
Source text: as §1

[11] = substrate: CC(=O)Nc1ccn([C@@H]2O[C@H](CO)[C@@H](O)[C@H]2O)c(=O)n1; remark: listed apart in the source
Source text: spectrophotometric hydrolysis assay, fit with product inhibition on recombinant wild-type YqfB (tag-free)

[12] = substrate: CC(=O)Nc1ccn([C@@H]2O[C@H](CO)[C@@H](O)[C@H]2O)c(=O)n1; remark: listed apart in the source
Source text: spectrophotometric hydrolysis assay, fit with product inhibition on recombinant YqfB with an N-terminal His6 tag

## YqfB with a C-terminal His6 tag (Escherichia coli K-12; E74A)
CC(=O)Nc1cc[nH]c(=O)n1
  Km: (3.0 ± 0.02) × 10^−4 M
  kcat: 0.22 ± 0.001 s⁻¹
  kcat/Km: 700 ± 4 M⁻¹ s⁻¹
[1]
  Km: (2.0 ± 0.03) × 10^−6 M
  kcat: 0.07 ± 0.0006 s⁻¹
  kcat/Km: 30000 ± 500 M⁻¹ s⁻¹

## YqfB with a C-terminal His6 tag (Escherichia coli K-12; Y89A)
[1]
  Km: (2.2 ± 0.06) × 10^−3 M
  kcat: 40 ± 1.3 s⁻¹
  kcat/Km: 19000 ± 900 M⁻¹ s⁻¹

## YqfB with a C-terminal His6 tag (Escherichia coli K-12; D27A)
[1]
  Km: (2.9 ± 0.11) × 10^−4 M
  kcat: 300 ± 16 s⁻¹
  kcat/Km: 1.2e+06 ± 10000 M⁻¹ s⁻¹

## YqfB with a C-terminal His6 tag (Escherichia coli K-12; H70A)
[1]
  Km: (5.0 ± 0.02) × 10^−5 M
  kcat: 23 ± 0.029 s⁻¹
  kcat/Km: 400000 ± 2000 M⁻¹ s⁻¹

B1: YqfB with a C-terminal His6 tag (Escherichia coli K-12) (protein)
chain: MQPNDITFFQRFQDDILAGRKTITIRDESESHFKTGDVLRVGRFEDDGYFCTIEVTATSTVTLDTLTEKHAEQENMTLTELKKVIADIYPGQTQFYVIEFKCL
notes: full length (103 residues), C-terminal His6 kept, pET21b, expressed in E. coli BL21(DE3) yqfB::Km, monomer
[2]
  Km: (7.0 ± 0.2) × 10^−5 M
[3]
  Km: (6.2 ± 0.1) × 10^−5 M
  kcat: 157 ± 1 s⁻¹
  kcat/Km: 2.2e+06 ± 100000 M⁻¹ s⁻¹
[4]
  Km: (4.00 ± 0.04) × 10^−4 M
  kcat: 101 ± 1 s⁻¹
  kcat/Km: 230000 ± 2000 M⁻¹ s⁻¹
[5]
  Km: (2.1 ± 0.2) × 10^−3 M
  kcat: 90 ± 7 s⁻¹
  kcat/Km: 40000 ± 3000 M⁻¹ s⁻¹
[6]
  Km: (1.9 ± 0.08) × 10^−3 M
  kcat: 75 ± 3 s⁻¹
  kcat/Km: 37500 ± 600 M⁻¹ s⁻¹
[7]
  Km: (1.4 ± 0.1) × 10^−4 M
[8]
  Km: (7.0 ± 0.2) × 10^−4 M
  kcat: 0.016 ± 0.003 s⁻¹
  kcat/Km: 22 ± 0.1 M⁻¹ s⁻¹
[9]
  Km: (5.1 ± 0.03) × 10^−3 M
[10]
  Km: (3.00 ± 0.01) × 10^−4 M
  kcat: 0.07 ± 0.01 s⁻¹
  kcat/Km: 230 ± 10 M⁻¹ s⁻¹

B2: recombinant wild-type YqfB (tag-free) (Escherichia coli K-12) (protein)
chain: MQPNDITFFQRFQDDILAGRKTITIRDESESHFKTGDVLRVGRFEDDGYFCTIEVTATSTVTLDTLTEKHAEQENMTLTELKKVIADIYPGQTQFYVIEFKCL
notes: full length (103 residues), no tag, pET21b-yqfB
[11]
  Km: (7.0 ± 0.1) × 10^−5 M
  kcat: 196 ± 1 s⁻¹
  kcat/Km: 2.8e+06 ± 300000 M⁻¹ s⁻¹

B3: recombinant YqfB with an N-terminal His6 tag (Escherichia coli K-12) (protein)
chain: MQPNDITFFQRFQDDILAGRKTITIRDESESHFKTGDVLRVGRFEDDGYFCTIEVTATSTVTLDTLTEKHAEQENMTLTELKKVIADIYPGQTQFYVIEFKCL
notes: full length (103 residues), N-terminal His6 kept, pETDuet-1, expressed in E. coli BL21(DE3) yqfB::Km
[12]
  Km: (7.0 ± 0.1) × 10^−5 M
  kcat: 154 ± 3 s⁻¹
  kcat/Km: 2.5e+06 ± 200000 M⁻¹ s⁻¹

Source: PMC6972931, “YqfB protein from Escherichia coli: an atypical amidohydrolase active towards N^4-acylcytosine derivatives” (Scientific Reports, 2020)
